# Results published in US20230094463A1, “ANTIBODIES THAT DISRUPT THE INTERACTION OF GAL3 AND INSULIN RECEPTOR OR INTEGRINS AND METHODS OF USE THEREOF” (TrueBinding, Inc., priority 2019, published 2023).
# Tested on: high-fat diet fed diabetic C57BL6J mice
# Assay: High-fat diet fed mouse model of type II diabetes
# Type: in vivo
# Conditions: HFD-fed mice; for liver steatosis (H&E stained liver sections): 10 mg/kg
# From the text: To evaluate whether Gal3-INSR blockade by Gal3-targeted antibodies functionally impacted diabetes biology, a mouse model of type II diabetes was employed. Male C57BL6J mice were purchased from Jackson Lab and fed with high fat diet (HFD, 60% kcal from fat, Research Diet, Catalog #12492i) starting from 7-week old for 8 weeks, 10 or 16 weeks. Age-matched male C57BL6J mice fed with standard chow diet were used as control mice. […] Mice were fed with standard chow diet or HFD ad libitum except when fasted as indicated in the experiments. Glucose tolerance test (GTT) and insulin tolerance test (ITT) were done at 15 weeks and 16 weeks old (8 weeks and 9 weeks after HFD), respectively, to confirm the insulin resistant and glucose intolerant phenotype. For GTT, mice were fasted for 6 hours by transferring mice to clean cage with no food or faeces but with drinking water and then injected with 2 g/kg glucose (Sigma) and blood was drawn to measure glucose levels at 0, 15, 30, 60, 90, and 120 minutes after glucose injection. For ITT, mice were fasted for 6 hours, and then injected with 0.75 IU/kg body weight of Humalin-R (Eli Lilly) intraperitoneally. Blood from the tail was measured for glucose content using HemoCue Glucose 201 Analyzer at 0, 15, 30, 45, 60 minutes. Based on area under the curve (AUC) from ITT, HFD fed mice were randomized into two groups: human IgG4 isotype group and IMT001-4 treated group. At 17 weeks of age, mice were given antibody treatments by intraperitoneal injection twice a week for 5 doses before ITT and GTT were done at 19 weeks old and 20 weeks old. Human IgG4 isotype and IMT001-4 were dosed at 10 mg/kg with 100 μl/mouse and BM was dosed at […] with 100 μl/mouse. Treatments continued until the mice were sacked at 21 weeks old. The mice body weight was monitored one week after the mice arrived at the facility. Body weight was measured once a week using a balance. Mouse blood was collected using cardiac puncture. Liver, gastrocnemius muscle, and posterior subcutaneous white adipose fat were collected and weighed.
# To further evaluate the ability of IMT001-4 to impact the pathological sequalae of diabetes, liver sections from animals treated as in FIGS. 3-5 were examined for signs of fat accumulation, e.g., steatosis. Briefly, liver specimens were fixed in 4% paraformaldehyde for 24 hours, placed in 70% EtOH for 3 days, embedded into paraffin and 10 μm sections were cut and mounted to glass slides and stained with hematoxylin and eosin and visualized on a Revolve microscope at 40× magnification. Images were evaluated by ImageJ to quantitate the extent of steatosis.
# To further characterize the liver disease observed in histological samples, serum markers of liver dysfunction were evaluated in animals treated as above […]. Briefly, mouse plasma samples were obtained from whole blood sample in lithium heparin collection tubes. 100 μl of serum was dispensed into the rotor of a VetScan VS2 Blood Chemistry Analyzer (Abaxis) through the sample port. ALT levels were determined as per the manufacturer's specification. […] Accordingly, the Gal3-targeted Gal3-INSR blocking antibody, IMT001-4, has utility in reducing serum liver enzymes.
# [1] = 10 mg/kg i.p. twice a week, vs isotype control
molecule,measurement,setting,value
"TB001: Gal3-targeted Gal3-INSR blocking anti-Gal3 antibody; IMT001-4 used with human IgG4 isotype control (antibody, V domains shown) VH: QVQLVQSGSELKKPGASVKVSCKASGYTFTNYGMNWVRQAPGQGLKWMGWINTNTGEPTYVEEFTGRFVFSLETSVSTAYLQISSLKAEDTAVYFCAPYDNFFAYWGQGTTVTVSS VL: DIVLTQSPLSLPVTPGEPASISCRSSKSLLYKDGKTYLNWFLQKPGQSPQLLIYLMSTHASGVPDRFSGSGSGTDFTLKISRVEAEDVGVYYCQQLVDYPLTFGGGTKLEIK",weight gain,"10 mg/kg i.p. twice a week, 19 day study",did not gain any appreciable weight
same,liver steatosis (H&E stained liver sections),10 mg/kg i.p. twice a week,negligible levels of steatosis
same,liver steatosis (H&E stained liver sections),"10 mg/kg i.p. twice a week, listed as IMT001-4 (TB001)",absence thereof
same,glucose reduction in response to insulin challenge (insulin tolerance test),[1],glucose clearance indistinguishable from non-diabetic mice fed a normal diet
same,response to glucose challenge (glucose tolerance test),[1],cleared glucose significantly more rapidly
same,serum liver enzyme ALT levels,relative to HFD-fed isotype-control treated mice,significantly decreased
same,liver steatosis by image quantification (ImageJ),relative to isotype-control treated animals,complete reversion of disease state
